The source of these data is publication PMC10901556, “Conservation of Affinity Rather Than Sequence Underlies a Dynamic Evolution of the Motif-Mediated p53/MDM2 Interaction in Ray-Finned Fishes” (Molecular Biology and Evolution, 2024).

The target of assay [1] is MDM2_(D.rerio) SWIB domain. Nature of the assay: fluorescence polarization competition assay. For orientation: In fluorescence polarisation assays a small probe gives low polarisation when free and higher when bound to something large.
In assay [2] the target is MDM2 SWIB domain from Anguilla anguilla (European eel) (Anguilla anguilla (European eel)). Nature of the assay: fluorescence polarisation; displacement: complex of MDM2 (0.2-2 μM) and FITC-p53TAD_(human)^15–26 (15 nM) displaced by increasing unlabeled p53TAD peptide or p53TAD^full-length; KD calculated from IC50 (Nikolovska-Coleska et al. 2004); 20 mM sodium phosphate pH 7.4, 150 mM NaCl, 1 mM TCEP.

Assay [3] concerns the target MDM2 SWIB domain from Channa argus (Channa argus). The description is as above.
For assay [4], the target named is MDM2 SWIB domain from Clupea harengus (Atlantic herring) (Clupea harengus (Atlantic herring)). Described as above.
For assay [5], the target named is MDM2 SWIB domain from Lepisosteus oculatus (spotted gar) (Lepisosteus oculatus (spotted gar)). The description is as above.
Assay [6] deals with MDM2 SWIB domain from Maylandia zebra (Maylandia zebra). The description is as above.
In assay [7] the target is MDM2 SWIB domain from Oncorhynchus kisutch (coho salmon) (Oncorhynchus kisutch (coho salmon)). The description is as above.
The target in assay [8] is MDM2 SWIB domain from Takifugu rubripes (Japanese puffer) (Takifugu rubripes (Japanese puffer)). The assay is described as above.
The target in assay [9] is MDM2_(D.rerio) SWIB domain (Danio rerio (zebrafish)). Described as above.
For assay [10] the target is unchanged. Kind of assay: ITC; MicroCal iTC200, 25 °C; D. rerio MDM2 11 μM in the cell, p53TAD 118 or 116 μM in the syringe; 20 mM sodium phosphate pH 7.4, 150 mM NaCl, 1 mM TCEP.
The target in assay [11] is MDM2 SWIB (Homo sapiens) (UniProt Q00987). The following applies: cited from earlier work.

In [1], p53TAD^17–32_(D.rerio) I28A registered a Kd of 0.46 µM.
On to p53TAD_(H.sapiens)^15–27 (peptide), for which the Kd was 0.9 µM in [2]; 2.1 µM in [3]; 1.8 µM in [4]; 0.37 µM in assay [5]; 1.7 µM in assay [6]; 0.78 µM in assay [7]. The Kd in assay [8] was 1.1 µM.
As to “Oncorhynchus kisutch p53TADP2 p53TAD^full-length (domain or fragment)”, in assay [7], the Kd was 0.07 µM.
With “alternative p53TAD^17–32_(D.rerio) (P79734) (peptide)”, the Kd in assay [9] was 0.58 µM.
For the substance “Anguilla anguilla (European eel) p53TADP1 p53TAD^full-length (domain or fragment)”, the Kd in assay [2] is 0.23 µM.
As for “Clupea harengus (Atlantic herring) p53TADP1 p53TAD^full-length (domain or fragment)”, the Kd in [4] was 0.19 µM.
In the case of “Anguilla anguilla p53TADP2 p53TAD^full-length (domain or fragment)”, in [2], the dissociation constant Kd was 0.06 µM.
Turning to “Lepisosteus oculatus (spotted gar) p53TAD^full-length (domain or fragment)”, in assay [5], the Kd was 0.085 µM.
In the case of “Clupea harengus p53TADP2 p53TAD^full-length (domain or fragment)”, the Kd in assay [4] is 0.04 µM.
Turning to “Maylandia zebra p53TADP1 p53TAD^full-length (domain or fragment)”, the Kd in assay [6] was 0.19 µM.
“Clupea harengus p53TADP2 p53TAD^15–27 (peptide)”: the Kd in assay [4] is 0.6 µM.
Consider p53TAD^17–32_(D.rerio) (peptide), for which the Kd in assay [10] was 0.3 µM; in assay [9] it was 0.18 µM.
Take “p53TAD_(D.rerio)^full-length (domain or fragment)”: the Kd in assay [10] is 0.1 µM; in [9], 0.049 µM.
With “Oncorhynchus kisutch (coho salmon) p53TADP1a p53TAD^full-length (domain or fragment)”, in assay [7], the Kd was 0.048 µM.
Same read-out and setting: to “Oncorhynchus kisutch p53TADP1b p53TAD^full-length (domain or fragment)” belongs 0.06 µM.
Take “Channa argus p53TADP1 p53TAD^full-length (domain or fragment)”: the Kd in [3] is 0.1 µM.
For p53 TAD (from UniProt P04637), in assay [11], the equilibrium dissociation constant (Kd) was 0.1 µM.

The term Kd denotes the concentration at which binding is half-saturated.
